Data on 7 molecules can be found in US20130084295A1.

Test [1] deals with IFN-α (subtype not stated; antigen of the ELISA, BIAcore and Kinexa assays of Example 2) (human). Briefly: ELISA, IFN-α coated at 0.1 µg/ml, F(ab) at 10 µg/ml; SD 0.06, N 3.
Test [2] shares this target. Briefly: Kinexa.
Test [3] shares this target. Briefly: ELISA, IFN-α coated at 0.1 µg/ml, F(ab) at 10 µg/ml; SD 0.00, N 3.
Test [4] shares this target. Description: ELISA, IFN-α coated at 0.1 µg/ml, F(ab) at 10 µg/ml; SD 0.05, N 3.
The target is the same in test [5]. Description: ELISA, IFN-α coated at 0.1 µg/ml, F(ab) at 10 µg/ml; SD 0.32, N 3.
The target is the same in test [6]. Briefly: Kinexa. This is another data set of the same source.
Test [7] addresses leukocyte interferon (Sigma Product No. 1-2396): heterogeneous collection of IFN-α subtypes produced by activated leukocytes. Description: cell-based or functional assay.

Positions count from the first letter of the chain named.

B1: humanized 9F3 F(ab) version F-11 (Fab, V domains shown)
VH: EVQLVESGGGLVQPGGSLRLSCATSGYTFTEYIIHWVRQAPGKGLEWVASINPDYDITNYNQRFKGRFTISLDKSSNTAYLQMNSLRAEDTAVYYCASWISDFFDYWGQGTLVTVSS
VL: DIQMTQSPSSLSASVGDRVTITCRASQSVSTSSYSYMHWYQQKPGKAPKLLIYYASNLESGVPSRFSGSGSGTDFTLTISSLQPEDFATYYCQHSWGIPRTFGQGTKVEIK
Molecule B1 gave an OD450 nm at 10 µg/ml (mean) in test [1] of 0.642 OD450 nm.

B2: humanized recombinant anti-IFN-α monoclonal antibody V13IgG2 (antibody, V domains shown)
VH: B1 VH with S76K, N77R
VL: DIQMTQSPSSLSASVGDRVTITCRASQSVSTSSYSYMHWYQQKPGKAPKVLISYASNLESGVPSRFSGSGSGTDFTLTISSLQPEDFATYYCQHSWGIPRTFGQGTKVEIKR
For B2, the fold reduction of affinity against the parental murine 9F3 antibody in test [2] worked out at 2 fold.

B3: humanized 9F3 F(ab) version F-14 (Fab, V domains shown)
VH: B1 VH with L72R, S76K, N77R
VL: B1 VL with L50V, Y53S
B3 showed an OD450 nm at 10 µg/ml (mean) in test [1] of 0.472 OD450 nm.

B4: humanized 9F3 F(ab) version F-1 (Fab, V domains shown)
VH: B1 VH with T24A, L72R, K74N, S76K, A79L, S98R
VL: B1 VL
B4 registered an OD450 nm at 10 µg/ml (mean) in test [3] of 0.06 OD450 nm.

B5: humanized 9F3 F(ab) version F-12 (Fab, V domains shown)
VH: B1 VH with S76K, N77R
VL: B1 VL
B5 returned an OD450 nm at 10 µg/ml (mean) in test [4] of 0.912 OD450 nm.

B6: humanized 9F3 F(ab) version F-15 (Fab, V domains shown)
VH: B1 VH with K74N, S76K, N77R
VL: B1 VL with L50V, Y53S
Consider B6, for which the OD450 nm at 10 µg/ml (mean) in test [5] is 0.868 OD450 nm.

B7: murine anti-human IFN-α monoclonal antibody 9F3 (antibody, IgG2, V domains shown)
VL: DIVLTQSPASLAVSLGQRATISCRASQSVSTSSYSYMHWYQQKPGQPPKVLISYASNLESGVPARFSGSGSGTDFTLNIHPVEEGDTATYFCQHSWGIPRTFGAGTKLELRRAV
VH: EVQLQQSGPELVKPGASVKISCKTSGYTFTEYIIHWVKQGHGRSLEWIGSINPDYDITNYNQRFKGKATLTLDKSSRTAYLELRSLTSEDSAVYYCASWISDFFDYWGQGTTLMVSAAS
B7 had a Kd in test [6] of 1.5 pM. This molecule also returned a neutralization of anti-viral activity (EMC virus, A549 cells; 10 µg/ml mAb) in test [7] above 95%.
